Reference: patent publication US20100021480A1, “BIOACTIVE SUBSTANCE-BLOOD PROTEIN CONJUGATE AND STABILIZATION OF A BIOACTIVE SUBSTANCE USING THE SAME” (priority 2005, published 2010)

Key:
[1] = molecular target: activated albumin 21 (human serum albumin whose Cys34 free thiol is substituted by a disulfanyl group with aldrithiol) (human) (UniProt P02768); assay: albumin binding test: 40 µl of 1 mM Compound 15 with 50 µl of 1 mM activated albumin in 100 µl PBS, 37 C 30 min, methanol precipitation, HPLC of supernatant (unbound peptide)
Sequence of activated albumin 21 (human serum albumin whose Cys34 free thiol is substituted by a disulfanyl group with aldrithiol) (human) (P02768 25-609 limits assumed): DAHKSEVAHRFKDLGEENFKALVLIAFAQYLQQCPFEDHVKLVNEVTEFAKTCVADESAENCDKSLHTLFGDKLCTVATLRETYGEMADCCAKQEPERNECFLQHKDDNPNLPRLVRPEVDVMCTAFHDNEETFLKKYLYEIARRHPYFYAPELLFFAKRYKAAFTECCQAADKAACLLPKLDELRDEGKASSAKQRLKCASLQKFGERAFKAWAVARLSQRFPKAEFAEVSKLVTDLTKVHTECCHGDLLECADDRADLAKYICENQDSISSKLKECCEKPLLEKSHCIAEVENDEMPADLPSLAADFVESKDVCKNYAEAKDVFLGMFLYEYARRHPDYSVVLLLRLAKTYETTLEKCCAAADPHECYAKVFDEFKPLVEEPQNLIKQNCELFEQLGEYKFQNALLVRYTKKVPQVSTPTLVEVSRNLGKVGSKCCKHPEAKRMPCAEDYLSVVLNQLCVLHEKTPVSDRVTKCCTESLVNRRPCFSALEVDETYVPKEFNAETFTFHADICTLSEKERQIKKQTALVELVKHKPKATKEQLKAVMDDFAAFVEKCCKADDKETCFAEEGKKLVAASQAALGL

[2] = molecular target: activated albumin 21 (human serum albumin whose Cys34 free thiol is substituted by a disulfanyl group with aldrithiol) (human) (UniProt P02768); assay: albumin binding test: 20 µl of 1 mM Compound 15 with 50 µl of 1 mM activated albumin, HPLC of supernatant (unbound peptide)
[3] = molecular target: activated albumin 21 (human serum albumin whose Cys34 free thiol is substituted by a disulfanyl group with aldrithiol) (human) (UniProt P02768); assay: albumin binding test: 50 µl of 1 mM Compound 15 with 40 µl of 1 mM activated albumin, HPLC of supernatant (unbound peptide)
[4] = molecular target: activated albumin 21 (human serum albumin whose Cys34 free thiol is substituted by a disulfanyl group with aldrithiol) (human) (UniProt P02768); assay: albumin binding test: 50 µl of 1 mM Compound 15 with 50 µl of 1 mM activated albumin, HPLC of supernatant (unbound peptide)
[5] = molecular target: activated albumin 21 (human serum albumin whose Cys34 free thiol is substituted by a disulfanyl group with aldrithiol) (human) (UniProt P02768); assay: albumin binding test: 40 µl of 1 mM Compound 15 with 50 µl of 1 mM activated albumin, HPLC of supernatant (unbound peptide)
[6] = molecular target: activated albumin 21 (human serum albumin whose Cys34 free thiol is substituted by a disulfanyl group with aldrithiol) (human) (UniProt P02768); assay: albumin binding test: 20 µl of 1 mM Compound 15 with 50 µl of 1 mM activated albumin in 100 µl PBS, 37 C 30 min, methanol precipitation, HPLC of supernatant (unbound peptide)
[7] = molecular target: activated albumin 21 (human serum albumin whose Cys34 free thiol is substituted by a disulfanyl group with aldrithiol) (human) (UniProt P02768); assay: albumin binding test: 50 µl of 1 mM Compound 15 with 40 µl of 1 mM activated albumin in 100 µl PBS, 37 C 30 min, methanol precipitation, HPLC of supernatant (unbound peptide)
[8] = molecular target: activated albumin 21 (human serum albumin whose Cys34 free thiol is substituted by a disulfanyl group with aldrithiol) (human) (UniProt P02768); assay: albumin binding test: 50 µl of 1 mM Compound 15 with 50 µl of 1 mM activated albumin in 100 µl, 37 C 30 min, methanol precipitation, HPLC of supernatant (unbound peptide)

Substance: Compound 15: Leuprolide-GSG-Lys-[ε-AEEA-CO-(CH2)2-SH]-NH2.2TFA (peptide)
- PA 20.6 min (HPLC peak area of Compound 15 left in the supernatant) [1]: 9.8e+06 peak area
- PA 20.6 min/4.4M (peak area against that of 10 µl Compound 15 alone) [2]: 0.3
- PA 20.6 min/4.4M (peak area against that of 10 µl Compound 15 alone) [3]: 4
- PA 20.6 min/4.4M (peak area against that of 10 µl Compound 15 alone) [4]: 3.3
- PA 20.6 min/4.4M (peak area against that of 10 µl Compound 15 alone) [5]: 2.2
- PA 20.6 min (HPLC peak area of Compound 15 left in the supernatant) [6]: 1.3e+06 peak area
- PA 20.6 min (HPLC peak area of Compound 15 left in the supernatant) [7]: 1.79e+07 peak area
- PA 20.6 min (HPLC peak area of Compound 15 left in the supernatant) [8]: 1.47e+07 peak area
